In article PMC8239432, “Cross-Reactive SARS-CoV-2 Neutralizing Antibodies From Deep Mining of Early Patient Responses” (Frontiers in Immunology, 2021):

How the values were obtained:
Conditions in all cases: both partners purified
[1] = target: T1, SARS-CoV-2 RBD-rCD4-Avi-His (SARS-CoV-2 (reference sequence), UniProt P0DTC2); test: SPR
T1 construct: also called RBD-rCD4-His

SARS-CoV-1 RBD = target: T2, SARS-CoV-1 RBD (SARS-CoV-1 (SARS-CoV); isolate not …, UniProt P59594); test: binding assay based on time resolved fluorescence (TRF)
T2 construct: also called RBD subdomain of the SARS-CoV-1 spike protein; source: Expi293F, purified (Nickel-NTA agarose)

[2] = target: T3, MERS-CoV S1 with a His tag (MERS-CoV, isolate EMC/2012 (from …, UniProt K0BRG7)); test: as above
T3 construct: source: bought: Sino Biological

[3] = target: T4, SARS CoV-2 RBD (Acro BioSystems, SPDC52H3) (SARS-CoV-2 (reference sequence), UniProt P0DTC2); test: BLI
T4 construct: source: bought: Acro BioSystems

[4] = target: T5, SARS-CoV-2 RBD-rCD4-Avi-His (SARS-CoV-2, UniProt P0DTC2); test: SPR
T5 construct: also called RBD-rCD4-His; monomeric RBD; source: Expi293F, purified (Nickel-NTA agarose)

B1: ION_300 IgG1 (antibody, V domains shown)
VH: QVQLVQSGAEVKKPGESLKISCKGSGYSFTSYWIGWVRQMPGKGLEWMGIIYPGDSDTRYSPSFQGQVTISADKSISTAYLQWSSLKASDTAMYYCARHPSPYYYGSGSYSGGFDYWGQGTLVTVSS
VL: DIVMTQSPGTLSLSPGERATLSCRASQSVSSSYLAWYQQKPGQAPRLLIYGASTRATGIPARFSGSGSGTEFTLTISSLQSEDFAVYYCQQYDNWPLMHTFGQGTKLEIK
notes: source: ExpiCHO or Expi293, purified (protein A, SEC)
Kd [1]: 3.4 nM
koff [1]: 0.000775 s⁻¹
kon [1]: 252000 M⁻¹ s⁻¹

B2: ION_300 IgG1 (antibody, V domains shown)
VH: B1 VH
VL: B1 VL
binding result (SARS-CoV-1 RBD): binds
binding result [2]: no binding
binding result [3]: binds

B3: ION_360 IgG1 (antibody, V domains shown)
VH: EVQLVQSGGGLVKPGGSLRLSCAASGITVSSNYMSWVRQAPGKGLEWVSVIYSGGSTYYADSVKGRFTISRDNSKNTLYLQMNSLRAEDTAVYYCARGEGGSIVGVTSDYWGQGTLVTVSS
VL: DIQMTQSPSSLSASVGDRVTITCRASQSISRYLNWYQQKPGKAPKLLIYAASSLQSGVPSRFSGSGSETEFTLTISSLHPDDFATYYCQQSYSTLPYTFGQGTKVEIK
notes: as for B1
koff [1]: 0.000279 s⁻¹
kon [1]: 188000 M⁻¹ s⁻¹

B4: ION_360 IgG1 (antibody, V domains shown)
VH: B3 VH
VL: B3 VL
Kd [4]: 1.5 nM
